Test results from patent US9066906B2, “Lunasin-containing complex and purification of lunasin from plants” (University of Louisville Research Foundation, Inc., priority 2009, dated 2015).
“Also recorded” adds a separate entry of the source. Blank lines part the entries; values can stand above or below the molecule they belong to.

Columns and labels:
[1] = system: SK-BR-3 human breast cancer cells; experiment: MTS cell proliferation assay, lunasin in combination with curcumin; format: cell-based; details: FIG. 7; for effect on the antiproliferative effect of curcumin: SK-BR-3 breast cancer cells, in combination with curcumin
Protocol: FIGS. 7A and 7B include the results of MTS cell proliferation assays, using SK-BR-3 human breast cancer cells, performed in the absence or presence of either synthetic lunasin or purified soybean-derived lunasin in combination with curcumin over a 1-3 day period.
MTS cell proliferation assays using SK-BR-3 human breast cancer cells were performed in the absence or presence of either synthetic lunasin or purified soybean-derived lunasin in combination with curcumin over a 2-3 day period. SK-BR-3 cells, whose growth were unaffected by lunasin alone, were inhibited up to 98% when combined with curcumin.
With reference to FIG. 7, synthetic lunasin and highly purified soybean-derived lunasin were used in combination with curcumin in an in vitro cell proliferation assays to assess the activity of lunasin against specific cancer cell lines.

[2] = system: H1299, non-small cell lung cancer; experiment: MTS cell proliferation assay; format: cell-based, human; details: lunasin 30 or 100 μM, complex 10 or 30 μM, 72 hours, FIG. 4
Protocol: (§1) The ability of lunasin, purified from soybean white flake in accordance with the presently-disclosed subject matter, to inhibit the proliferation of specific cancer cell lines was studied. Recent studies have shown that lunasin and lunasin-containing protein preparations can inhibit the proliferation of several cancer cell lines in vitro. To further assess and confirm the biological activity of lunasin and the lunasin-containing complex, cell proliferation assays were conducted with a panel of established cancer cell lines.
(§2) A panel of cancer cell lines was collected from colleagues or purchased from the American Type Culture Collection. Cells were grown in the appropriate medium and treated with PBS (control), lunasin (30 or 100 μM), or the lunasin-containing complex (10 or 30 μM) for 72 hours. Cell viability was assessed using a standard [3-(4,5-dimethylthiazol-2-yl)-5-(3-carboxymethoxy-phenyl)-2-(4-sulfo-phenyl)-2H-tetrazolium (MTS) assay. The data shown (FIG. 4) represent the number of viable cells relative to the PBS-treated controls. The human cell lines tested were: H661, non-small cell lung cancer; H1299, non-small cell lung cancer; SKBR3, adenocarcinoma mammary gland origin; MDA-MB-231, adenocarcinoma, mammary gland origin; MCF-7, adenocarcinoma, mammary gland origin; and HT-29, adenocarcinoma, colon origin.

[3] = system: H661, non-small cell lung cancer; experiment: MTS cell proliferation assay; format: cell-based, human; details: lunasin 30 or 100 μM, complex 10 or 30 μM, 72 hours, FIG. 4
Protocol: as §1, §2

[4] = system: MDA-MB-231, adenocarcinoma, mammary gland origin; experiment: MTS cell proliferation assay; format: cell-based, human; details: lunasin 30 or 100 μM, complex 10 or 30 μM, 72 hours, FIG. 4
Protocol: as §1, §2

human histone H4 (hH4) = human histone H4 (hH4) (Homo sapiens, UniProt P62805); experiment: in vitro histone binding assay (microtiter plate, anti-lunasin antibody, absorbance at 450 nm); details: FIG. 3
Text: (§3) The ability of lunasin, purified from soybean white flake in accordance with the presently-disclosed subject matter, to bind the cores histones H3 and H4 was studied. […] To confirm the biological activity of the lunasin purified from soybean white flake using the methods in the subject matter disclosed herein, an in vitro binding assay was used to assess binding to the human H3 and H4 proteins.
(§4) Increasing amounts of histone 3.3 (hH3.3) and histone 4 (hH4) were bound to wells of a […] microtiter plate. Different amounts of either synthetic lunasin or purified lunasin were added to the wells and allowed to bind. The concentration of lunasin bound was determined using a polyclonal antibody against lunasin and a horseradish peroxidase conjugated antibody that recognizes the lunasin antibody. Binding was quantitated by measuring the absorbance at 450 nm.

human histone H3 (hH3.3) = human histone H3 (hH3.3) (Homo sapiens, UniProt P84243); experiment: as above; details: FIG. 3
Text: as §3, §4

[5] = system: panel of cancer cell lines; experiment: MTS cell proliferation assays with a panel of established cancer cell lines; format: cell-based, human; details: 72 hours, FIG. 4
Protocol: as §1, §2

[6] = system: SKBR3, adenocarcinoma mammary gland origin; experiment: MTS cell proliferation assay; format: cell-based, human; details: complex 10 or 30 μM, 72 hours, FIG. 4
Protocol: as §1, §2

[7] = system: MCF-7, adenocarcinoma, mammary gland origin; experiment: MTS cell proliferation assay; format: cell-based, human; details: complex 10 or 30 μM, 72 hours, FIG. 4
Protocol: as §1, §2

[8] = system: HT-29, adenocarcinoma, colon origin; experiment: MTS cell proliferation assay; format: cell-based, human; details: complex 10 or 30 μM, 72 hours, FIG. 4
Protocol: as §1, §2

preference of binding, H4 versus H3 (human histone H4 (hH4)): higher affinity for H4 than for H3
Molecule: soybean-derived lunasin: lunasin polypeptide purified from soybean white flake, 5139.25 Da, corresponding to SEQ ID NO: 2 (additional C-terminal Asn) (SKWQHQQDSCRKQLQGVNLTPCEKHIMEKIQGRGDDDDDDDDDN; Glycine max)
effect on the antiproliferative effect of curcumin [1]: significantly enhanced the antiproliferative effect of curcumin | growth/proliferation of H1299 cells (viable cells relative to PBS-treated controls) [2]: minor effect | growth/proliferation of H661 cells (viable cells relative to PBS-treated controls) [3]: significantly inhibit the growth | growth/proliferation of MDA-MB-231 cells (viable cells relative to PBS-treated controls) [4]: minor effect | binding to human histone H4 (human histone H4 (hH4)): affinity greater than that observed using a synthetic lunasin; also recorded: bound to both H4 and H3 in a dose dependent manner | binding to human histone H3 (human histone H3 (hH3.3)): affinity greater than that observed using a synthetic lunasin; also recorded: bound to both H4 and H3 in a dose dependent manner

preference of binding, H4 versus H3 (human histone H4 (hH4)): more binding to H4 compared to H3
Molecule: synthetic lunasin: synthetic lunasin created by peptide synthesis, comprised of SEQ ID NO: 1 [reference compound]
effect on the antiproliferative effect of curcumin [1]: significantly enhanced the antiproliferative effect of curcumin | binding to human histone H4 (human histone H4 (hH4)): binding was lower than observed using the soybean-derived lunasin | binding to human histone H3 (human histone H3 (hH3.3)): binding was lower than observed using the soybean-derived lunasin

Second part, the molecule before the results:

Molecule: lunasin
growth of SK-BR-3 cells, lunasin alone ([1]; without curcumin, 2-3 day period): unaffected

B1: lunasin-containing complex: lunasin polypeptide of SEQ ID NO: 2 linked by disulfide bridges to a second polypeptide of SEQ ID NO: 3, 14.1 kDa, from soybean (protein)
chain 1: SKWQHQQDSCRKQLQGVNLTPCEKHIMEKIQGRGDDDDDDDDDN
chain 2: EGKDEDEEEEGHMQKCCTEMSELRSPKCQCKALQKIMENQSEELEEKQKKKMEKELINLATMCRFGPMIQCDLSSDD
modifications: disulfide-linked complex; Glycine max
antiproliferative effectiveness compared with lunasin peptide alone [5]: more effective than the lunasin peptide alone | growth/proliferation of H1299 cells (viable cells relative to PBS-treated controls) [2]: most sensitive | growth/proliferation of H661 cells (viable cells relative to PBS-treated controls) [3]: most sensitive | growth/proliferation of MDA-MB-231 cells (viable cells relative to PBS-treated controls) [4]: most sensitive | proliferation of SKBR3 cells (viable cells relative to PBS-treated controls) [6]: reduced proliferation | proliferation of MCF-7 cells (viable cells relative to PBS-treated controls) [7]: reduced proliferation | proliferation of HT-29 cells (viable cells relative to PBS-treated controls) [8]: reduced proliferation
